Source: US20040146512A1 (RINAT NEUROSCIENCE, published 2004)

T1: Aβ1-16 peptide
T1 construct: Soluble fragment from American Peptide Company
T1 peptide: DAEFRHDSGYEVHHQK

B1: monoclonal antibody 2286 (produced by hybridoma 8A1.2A1) (antibody, V domains shown)
VH: EVKLLESGGGLVQPGGSLKLSCAASGFDFSRYWMNWVRQAPGKGLEWIGEINPDSSTINYTPSLKDKFIISRDNAKNTLYLQMSKVRSEDTALYYCARQMGYWGQGTTLTVSS
VL: DIQMTQTTSSLSASLGDRVTISCSASQGISNYLNWFQQKPDGTVKLLIYYTSSLHSGVPSRFSGSGSGTDYSLTISNLEPEDIATYYCQQYRKLPYTFGGGTKLEIKR
B2: Mouse 2286 Fab (Fab, V domains shown)
VH: B1 VH
VL: B1 VL
B3: monoclonal antibody 2324 (produced by hybridoma 10B10.2E6) (antibody, V domains shown)
VH: VTLKESGPGILKPSQTLSLTCSFSGFSLSTSGMGVGWIRQSSGKGLEWLAHIWWDDDKYYNPSLKSQLTISKDTSRNQVFLKITSVDTADTATYYCARRGVRHRDYFDYWGQGTTLTVSS
VL: DVLMTQTPLSLPVSLGDQASISCRSSQSIVHSNGNTYLEWYLQKPGQSPKLLIYKVSNRFSGVPDRFSGSGSGTDFTLKISRVEAEDLGVYYCFQGSRVPLTFGAGTKLELKR

Experiments:
Aβ1-40 peptide = target: T2, Aβ1-40 peptide; assay: Affinity Kd of Table 2; method and format not stated in Example 1
T2 construct: Synthetic peptide, also the immunogen; also called Aβ peptide; β-amyloid peptide 1-40

Aβ1-42 peptide [1] = target: T3, Aβ1-42 peptide; assay: ELISA: peptide immobilized on plate + Ab + GAMIgG(Fc)HRP, absorbance 490 nm; antibody concentration not given
T3 construct: also called 1-42 (WT); β-amyloid peptide 1-42

Aβ1-43 peptide [2] = target: T4, Aβ1-43 peptide; assay: as above
T4 construct: also called 1-43 (WT); β-amyloid peptide 1-43

[3] = target: T5, Aβ1-41 expressed as GST fusion protein (Homo sapiens (Human), UniProt P05067 672-712); assay: ELISA: GST fusion protein immobilized 0.25 µg per well, biotin goat anti-mouse (H+L) + streptavidin-HRP, OD450
T5 construct: also called 1-41 (WT); not shown: Glutathione-S-Transferase (GST) fusion partner, Amersham Pharmacia Biotech system

Aβ1-16 peptide [4] = target: T1, Aβ1-16 peptide; assay: SPR (Biacore 3000) competition: antibody over biotin-Aβ1-40 on a streptavidin chip, with soluble peptide; % of maximal binding
Aβ1-28 peptide [5] = target: T6, Aβ1-28 peptide; assay: as above
T6 construct: Soluble fragment from American Peptide Company

Aβ1-38 peptide [6] = target: T7, Aβ1-38 peptide; assay: as above
T7 construct: Soluble fragment from American Peptide Company

[7] = target: T8, Aβ1-40 variant V36A expressed as GST fusion protein (Homo sapiens (Human), UniProt P05067 672-711, Expressed as a GST fusion protein; the GST part is left out.); assay: ELISA: GST fusion protein immobilized 0.25 µg per well, antibody at 2 nM, biotin goat anti-mouse (H+L) + streptavidin-HRP, OD450
T8 construct: also called V36A (1-40); not shown: GST fusion partner and its linker

[8] = target: T9, Aβ1-40 variant V39A expressed as GST fusion protein (Homo sapiens (Human), UniProt P05067 672-711, Expressed as a GST fusion protein; the GST part is left out.); assay: as above
T9 construct: also called V39A (1-40); not shown: GST fusion partner and its linker

[9] = target: T10, Aβ1-40 variant V40A expressed as GST fusion protein (Homo sapiens (Human), UniProt P05067 672-710, Expressed as a GST fusion protein; the GST part is left out.); assay: as above
T10 construct: also called V40A (1-40); not shown: GST fusion partner and its linker

[10] = target: T11, Aβ1-40 polypeptide coupled to biotin, immobilized on a streptavidin-coated chip (coupled to biotin (position not given)); assay: SPR (BIAcore 3000), Fab over biotin-Aβ1-40 on SA chip, 'Steady-State' method
T11 construct: From Global Peptide Services; Used in the SPR assays; also called biotinylated Aβ peptide 1-40; immobilized Aβ1-40

Aβ1-42 peptide [11] = target: T3, Aβ1-42 peptide; assay: ELISA: peptide immobilized on plate + Ab + GAMIgG(Fc)HRP, absorbance 490 nm
Aβ1-43 peptide [12] = target: T4, Aβ1-43 peptide; assay: as above
[13] = target: T12, beta amyloid precursor protein (βAPP) (Homo sapiens, UniProt P05067 18-770); assay: ELISA: β-APP (gD) immobilized on plate + Ab + GAMIgG(Fc)HRP, absorbance 490 nm; antibody concentration not given
T12 construct: also called amyloid beta (A4) precursor protein

[14] = target: T13, Wild-type Aβ1-40 expressed as GST fusion protein (Homo sapiens (Human), UniProt P05067 672-711); assay: ELISA: GST fusion protein immobilized 0.25 µg per well, antibody at 2 nM, biotin goat anti-mouse (H+L) + streptavidin-HRP, OD450
T13 construct: Expressed in E. coli; also called Aβ1-40 (WT) GST fusion; WT Aβ1-40; not shown: Glutathione-S-Transferase (GST) fusion partner, Amersham Pharmacia Biotech system

[15] = target: T5, Aβ1-41 expressed as GST fusion protein; assay: as above
Aβ1-16 peptide [16] = target: T1, Aβ1-16 peptide; assay: SPR (Biacore 3000) competition: antibody 100 nM over biotin-Aβ1-40 on a streptavidin chip, with soluble peptide at 1000 nM; % of maximal binding
Aβ1-28 peptide [17] = target: T6, Aβ1-28 peptide; assay: as above
Aβ1-38 peptide [18] = target: T7, Aβ1-38 peptide; assay: as above

T5 sequence (P05067 672-712): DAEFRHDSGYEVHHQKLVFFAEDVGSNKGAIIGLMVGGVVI
T9 sequence (P05067 672-711 V710A limits assumed): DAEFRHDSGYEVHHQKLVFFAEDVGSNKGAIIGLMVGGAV
T10 sequence (P05067 672-711 V711A limits assumed): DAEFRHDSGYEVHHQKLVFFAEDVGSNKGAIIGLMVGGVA
T8 sequence (P05067 672-711 V707A limits assumed): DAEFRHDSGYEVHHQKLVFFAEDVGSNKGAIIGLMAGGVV
T12 sequence (P05067 other isoform, or with tags, fused parts or gaps limits assumed): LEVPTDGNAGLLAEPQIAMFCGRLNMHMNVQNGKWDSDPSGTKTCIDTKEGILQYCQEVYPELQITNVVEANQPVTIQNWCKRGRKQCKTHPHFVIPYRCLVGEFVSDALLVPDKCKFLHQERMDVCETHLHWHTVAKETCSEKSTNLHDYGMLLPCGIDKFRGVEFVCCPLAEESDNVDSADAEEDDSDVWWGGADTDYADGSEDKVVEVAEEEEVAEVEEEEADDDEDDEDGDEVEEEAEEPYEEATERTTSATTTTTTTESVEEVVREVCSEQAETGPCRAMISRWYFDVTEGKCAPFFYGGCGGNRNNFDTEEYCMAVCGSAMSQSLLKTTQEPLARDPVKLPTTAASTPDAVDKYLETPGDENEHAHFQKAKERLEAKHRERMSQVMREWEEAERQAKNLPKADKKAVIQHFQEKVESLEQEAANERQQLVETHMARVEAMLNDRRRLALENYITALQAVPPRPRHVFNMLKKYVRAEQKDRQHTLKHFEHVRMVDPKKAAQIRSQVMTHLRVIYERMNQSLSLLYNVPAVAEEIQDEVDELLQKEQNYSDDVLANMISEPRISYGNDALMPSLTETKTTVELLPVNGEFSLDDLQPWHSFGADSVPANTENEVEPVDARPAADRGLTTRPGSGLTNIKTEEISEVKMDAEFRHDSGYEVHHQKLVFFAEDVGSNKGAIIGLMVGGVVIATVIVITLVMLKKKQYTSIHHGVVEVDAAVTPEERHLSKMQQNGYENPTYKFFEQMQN

Binder | Kd (Aβ1-40 peptide) [nM] | binding result (Aβ1-42 peptide [1]) | binding result (Aβ1-43 peptide [2]) | binding result [3] | binding result (Aβ1-16 peptide [4]) | binding result (Aβ1-28 peptide [5]) | binding result (Aβ1-38 peptide [6]) | binding result [7] | binding result [8] | binding result [9] | Kd [10] [nM] | binding result (Aβ1-42 peptide [11]) | binding result (Aβ1-43 peptide [12]) | binding result [13] | binding result [14] | binding result [15] | binding result (Aβ1-16 peptide [16]) | binding result (Aβ1-28 peptide [17]) | binding result (Aβ1-38 peptide [18])
B1 | 2.7 | no binding | no binding | no binding (tested: 2 nM) | no binding | no binding | no binding | binds | binds | binds | – | – | – | – | – | – | – | – | –
B2 | – | – | – | – | – | – | – | – | – | – | 76 | – | – | – | – | – | – | – | –
B3 | 0.9 | – | – | – | – | – | – | binds | binds | binds | – | binds | binds | no binding | binds | binds | binds | binds | binds
